Measured values from article PMC2867956, “Interdomain Interactions Control Ca^2+-Dependent Potentiation in the Cation Channel TRPV4” (PLoS ONE, 2010).

Tests used:
[1] = biological target: N1-YFP (full-length TRPV4 N terminus); experiment: FRET or BRET; acceptor photobleaching FRET of CFP- and YFP-fused TRPV4 termini coexpressed in HEK293 cells
[2] = biological target: YFP-fused C1 fragment (full-length TRPV4 C terminus); experiment: FRET acceptor photobleaching in HEK293 cells; details: coexpressed in HEK293 cells; 3 independent experiments; parent: est. 35; read off a plot
[3] = biological target: C2-GST-biotin (C-terminal TRPV4 fragment C2) (human); experiment: AlphaScreen or HTRF; C2-biotin with CaM-Flag or mutants, Ca2+ concentration varied
Chain of C2-GST-biotin (C-terminal TRPV4 fragment C2) (human) (Q9HBA0 whole entry, the tested form may be a part): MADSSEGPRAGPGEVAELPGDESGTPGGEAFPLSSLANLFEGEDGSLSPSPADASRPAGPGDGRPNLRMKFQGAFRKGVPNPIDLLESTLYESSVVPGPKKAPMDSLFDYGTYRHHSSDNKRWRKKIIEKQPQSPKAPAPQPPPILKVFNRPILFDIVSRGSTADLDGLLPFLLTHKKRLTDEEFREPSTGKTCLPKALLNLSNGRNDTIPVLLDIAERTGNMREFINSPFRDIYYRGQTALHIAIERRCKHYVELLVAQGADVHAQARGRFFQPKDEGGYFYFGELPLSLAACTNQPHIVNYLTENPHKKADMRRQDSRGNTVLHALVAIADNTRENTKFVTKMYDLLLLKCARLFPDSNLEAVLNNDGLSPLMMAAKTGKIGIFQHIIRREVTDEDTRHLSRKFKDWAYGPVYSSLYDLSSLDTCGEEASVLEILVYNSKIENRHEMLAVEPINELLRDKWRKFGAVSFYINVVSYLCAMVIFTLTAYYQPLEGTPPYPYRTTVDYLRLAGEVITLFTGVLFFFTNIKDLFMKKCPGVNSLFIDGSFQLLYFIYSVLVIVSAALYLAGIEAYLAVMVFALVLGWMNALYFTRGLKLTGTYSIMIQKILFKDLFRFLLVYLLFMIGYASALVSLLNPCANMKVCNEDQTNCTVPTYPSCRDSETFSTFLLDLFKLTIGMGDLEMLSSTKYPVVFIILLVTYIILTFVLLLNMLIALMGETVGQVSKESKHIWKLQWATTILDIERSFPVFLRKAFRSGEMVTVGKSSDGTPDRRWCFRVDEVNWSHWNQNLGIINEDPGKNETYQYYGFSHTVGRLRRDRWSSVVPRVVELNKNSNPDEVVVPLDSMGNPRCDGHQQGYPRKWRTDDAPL

[4] = biological target: C2-Flag (C-terminal TRPV4 fragment C2) (human); experiment: AlphaScreen or HTRF; competition: acceptor beads with C2-Flag, donor beads with P2-biotin or C2-biotin, increasing CaM, 100 µM Ca2+ or 1 mM EGTA
Chain of C2-Flag (C-terminal TRPV4 fragment C2) (human) (Q9HBA0 whole entry, the tested form may be a part): as above

Chain of N1-YFP (full-length TRPV4 N terminus) (Q9HBA0 whole entry, the tested form may be a part): as above
Chain of CFP-fused N1 (full-length TRPV4 N terminus) (domain or fragment) (Q9HBA0 whole entry, the tested form may be a part): as above

Substance: CFP-fused N1 (full-length TRPV4 N terminus) (domain or fragment)
- maximal relative donor fluorescence increase after acceptor bleaching [1]: 1.27

Substance: CFP-fused N1 (full-length TRPV4 N terminus) KRA
- response [2]: 17%

Substance: CFP-fused N1 (full-length TRPV4 N terminus) WIA
- response [2]: 25%

Substance: CaM12 (CaM mutant Ca2+ binding-deficient in the N lobe), Flag-tagged (from UniProt P0DP23 1-149) (natural protein)
- EC50 of Ca2+ for the interaction [3]: 10.7 µM

Substance: CaM34 (CaM mutant Ca2+ binding-deficient in the C lobe), Flag-tagged (from UniProt P0DP23 1-149) (natural protein)
- EC50 of Ca2+ for the interaction [3]: 27 µM

Substance: calmodulin (from UniProt P0DP23 1-149) (natural protein)
- IC50 [4]: 0.166 µM

Substance: wild type CaM-Flag (from UniProt P0DP23 1-149) (natural protein)
- EC50 of Ca2+ for the interaction [3]: 8.8 µM
